Results from paper PMC4460866, “A folded and immunogenic IgE-hyporeactive variant of the major allergen Phl p 1 produced in Escherichia coli” (BMC Biotechnology, 2015).
Where a chain is given by its changes, count along the chain named. Names and notes keep the numbering of the source.

B1: C-terminal domain of Phl p 1.0102 (wild-type), GST tag removed (domain or fragment)
chain: KVTFHVEKGSNPNYLALLVKYVNGDGDVVAVDIKEKGKDKWIELKESWGAIWRIDTPDKLTGPFTVRYTTEGGTKTEAEDVIPEGWKADTSYESK
B2: IgE-hyporeactive (K8A, N11A, D55A) mutant of the C-terminal domain of Phl p 1.0102, GST tag removed (domain or fragment)
chain: B1 chain with K8A, N11A, D55A

Target: the molecule itself
Assay: SEC; gel filtration of the purified tag-free proteins; elution volumes corresponding to approximately 20 kDa; data not shown

Protein | stoichiometry N
B1 | 2
B2 | 2
